Data published in patent US10597674B2, “HPPD variants and methods of use” (BASF Agricultural Solutions Seed, US LLC, priority 2015, dated 2020).

Tested on: transgenic soybean T0 events
Test: Additional greenhouse trials of T0 soybean events, leaf damage score 0-100 as percentiles
Format: in vivo
Settings: Cmpd. 1 300 g AI/ha, five days; for leaf damage score, Interquartile range: 75th minus 25th percentile; for leaf damage score, 25th percentile: scale 0 (no damage) to 100 (complete bleaching); for leaf damage score, 75th percentile / leaf damage score, 90th percentile / leaf damage score, Median: scale 0-100
Text: In additional greenhouse trials, 21 to 94 independent T0 soybean events per construct containing an exemplary mutant HPPD polypeptide were sprayed with the HPPD inhibitor herbicide Cmpd. […] Five days after the application, the leaf damaged area due to the HPPD inhibitor herbicide is scored in a scale from 0 (no damage) to 100 (complete bleaching). Under those conditions, the wild-type plants were completely bleached and their damage scores were in the 95-100 range.
Table 9 presents the distribution of the HPPD inhibitor herbicide damage score data as percentile for exemplary mutant HPPD inhibitor herbicide tolerant polypeptides (SEQ ID NOs). The percentiles normalize ranks of the damage score from an individual plant in a population. […] The median is the 50th percentile. Half the values had higher damage scores; half had lower damage scores. […] The difference between the 75th and 25th percentile is called the interquartile range and a marker to quantify scattering in the population. All constructs had only one single cassette insertion in the soybean genome.
In Table 9, the constructs were ranked based on injury scores according to the 75th percentile, from smallest to highest score. All exemplary HPPD polypeptide variants are better in all percentile analyses than the prior art mutant HPPD polypeptide (WO2014/043435) corresponding to SEQ ID NO:2 in this invention. The scoring of the prior art mutant HPPD polypeptide (WO2014/043435) corresponding to SEQ ID NO:2 in this invention is listed in the bottom row of Table 9.

Molecule	leaf damage score, Interquartile range	leaf damage score, 25th percentile	leaf damage score, 75th percentile	leaf damage score, 90th percentile	leaf damage score, Median
SEQ ID NO: 34: mutant HPPD polypeptide: P268G T270E D330H E335P G336D N337S A340R I345K (protein, mutant HPPD polypeptide, mutant HPPD polypeptide: P268G T270E D330H E335P G336D N337S A340R I345K) MADLYENPMGLMGFEFIEFASPTPGTLEPIFEIMGFTKVATHRSKNVHLYRQGEINLILNNEPNSIASYFAAEHGPSVCGMAFRVKDSQKAYNRALELGAQPIHIDTGPMELNLPAIKGIGGAPLYLIDRFGEGSSIYDIDFVYLEGVERNPVGAGLKVIDHLTHNVYRGRMVYWANFYEKLFNFREARYFDIKGEYTGLTSKAMSAPDGMIRIPLNEESSKGAGQIEEFLMQFNGEGIQHVAFLTDDLVKTWDALKKIGMRFMTAPGDEYYEMLEGRLPDHGEPVDQLQARGILLDGSSVEGDKRLLLQIFSETLMGPVFFEFIQRKGHDGFGPDSFKRLFESKERDQVRRGVLTAD	10.0	10.0	20.0	70.0	15.0
SEQ ID NO: 42: mutant HPPD polypeptide: A204T P268G T270E E335P G336D N337S A340V I345V (protein, mutant HPPD polypeptide, mutant HPPD polypeptide: A204T P268G T270E E335P G336D N337S A340V I345V) MADLYENPMGLMGFEFIEFASPTPGTLEPIFEIMGFTKVATHRSKNVHLYRQGEINLILNNEPNSIASYFAAEHGPSVCGMAFRVKDSQKAYNRALELGAQPIHIDTGPMELNLPAIKGIGGAPLYLIDRFGEGSSIYDIDFVYLEGVERNPVGAGLKVIDHLTHNVYRGRMVYWANFYEKLFNFREARYFDIKGEYTGLTSKTMSAPDGMIRIPLNEESSKGAGQIEEFLMQFNGEGIQHVAFLTDDLVKTWDALKKIGMRFMTAPGDEYYEMLEGRLPDHGEPVDQLQARGILLDGSSVEGDKRLLLQIFSETLMGPVFFEFIQRKGDDGFGPDSFKVLFESVERDQVRRGVLTAD	10.0	10.0	20.0	75.0	15.0
SEQ ID NO: 45: mutant HPPD polypeptide: P268G T270E T315R E335P G336D N337S A340V I345V (protein, mutant HPPD polypeptide, mutant HPPD polypeptide: P268G T270E T315R E335P G336D N337S A340V I345V) MADLYENPMGLMGFEFIEFASPTPGTLEPIFEIMGFTKVATHRSKNVHLYRQGEINLILNNEPNSIASYFAAEHGPSVCGMAFRVKDSQKAYNRALELGAQPIHIDTGPMELNLPAIKGIGGAPLYLIDRFGEGSSIYDIDFVYLEGVERNPVGAGLKVIDHLTHNVYRGRMVYWANFYEKLFNFREARYFDIKGEYTGLTSKAMSAPDGMIRIPLNEESSKGAGQIEEFLMQFNGEGIQHVAFLTDDLVKTWDALKKIGMRFMTAPGDEYYEMLEGRLPDHGEPVDQLQARGILLDGSSVEGDKRLLLQIFSERLMGPVFFEFIQRKGDDGFGPDSFKVLFESVERDQVRRGVLTAD	21.3	5.0	26.3	67.5	15.0
SEQ ID NO: 5: mutant HPPD polypeptide: E335P N337S (protein, mutant HPPD polypeptide, mutant HPPD polypeptide: E335P N337S) MADLYENPMGLMGFEFIEFASPTPGTLEPIFEIMGFTKVATHRSKNVHLYRQGEINLILNNEPNSIASYFAAEHGPSVCGMAFRVKDSQKAYNRALELGAQPIHIDTGPMELNLPAIKGIGGAPLYLIDRFGEGSSIYDIDFVYLEGVERNPVGAGLKVIDHLTHNVYRGRMVYWANFYEKLFNFREARYFDIKGEYTGLTSKAMSAPDGMIRIPLNEESSKGAGQIEEFLMQFNGEGIQHVAFLTDDLVKTWDALKKIGMRFMTAPPDTYYEMLEGRLPDHGEPVDQLQARGILLDGSSVEGDKRLLLQIFSETLMGPVFFEFIQRKGDDGFGPGSFKALFESIERDQVRRGVLTAD	10.0	10.0	20.0	72.0	15.0
SEQ ID NO: 9: mutant HPPD polypeptide: E335P G336D N337S I345V (protein, mutant HPPD polypeptide, mutant HPPD polypeptide: E335P G336D N337S I345V) MADLYENPMGLMGFEFIEFASPTPGTLEPIFEIMGFTKVATHRSKNVHLYRQGEINLILNNEPNSIASYFAAEHGPSVCGMAFRVKDSQKAYNRALELGAQPIHIDTGPMELNLPAIKGIGGAPLYLIDRFGEGSSIYDIDFVYLEGVERNPVGAGLKVIDHLTHNVYRGRMVYWANFYEKLFNFREARYFDIKGEYTGLTSKAMSAPDGMIRIPLNEESSKGAGQIEEFLMQFNGEGIQHVAFLTDDLVKTWDALKKIGMRFMTAPPDTYYEMLEGRLPDHGEPVDQLQARGILLDGSSVEGDKRLLLQIFSETLMGPVFFEFIQRKGDDGFGPDSFKALFESVERDQVRRGVLTAD	5.0	10.0	15.0	19.0	10.0
SEQ ID NO: 21: mutant HPPD polypeptide: E335P G336H N337S (protein, mutant HPPD polypeptide, mutant HPPD polypeptide: E335P G336H N337S) MADLYENPMGLMGFEFIEFASPTPGTLEPIFEIMGFTKVATHRSKNVHLYRQGEINLILNNEPNSIASYFAAEHGPSVCGMAFRVKDSQKAYNRALELGAQPIHIDTGPMELNLPAIKGIGGAPLYLIDRFGEGSSIYDIDFVYLEGVERNPVGAGLKVIDHLTHNVYRGRMVYWANFYEKLFNFREARYFDIKGEYTGLTSKAMSAPDGMIRIPLNEESSKGAGQIEEFLMQFNGEGIQHVAFLTDDLVKTWDALKKIGMRFMTAPPDTYYEMLEGRLPDHGEPVDQLQARGILLDGSSVEGDKRLLLQIFSETLMGPVFFEFIQRKGDDGFGPHSFKALFESIERDQVRRGVLTAD	15.0	10.0	25.0	35.0	15.0
SEQ ID NO: 44: mutant HPPD polypeptide: R213L P268G T270E E335P G336D N337S A340V I345V (protein, mutant HPPD polypeptide, mutant HPPD polypeptide: R213L P268G T270E E335P G336D N337S A340V I345V) MADLYENPMGLMGFEFIEFASPTPGTLEPIFEIMGFTKVATHRSKNVHLYRQGEINLILNNEPNSIASYFAAEHGPSVCGMAFRVKDSQKAYNRALELGAQPIHIDTGPMELNLPAIKGIGGAPLYLIDRFGEGSSIYDIDFVYLEGVERNPVGAGLKVIDHLTHNVYRGRMVYWANFYEKLFNFREARYFDIKGEYTGLTSKAMSAPDGMILIPLNEESSKGAGQIEEFLMQFNGEGIQHVAFLTDDLVKTWDALKKIGMRFMTAPGDEYYEMLEGRLPDHGEPVDQLQARGILLDGSSVEGDKRLLLQIFSETLMGPVFFEFIQRKGDDGFGPDSFKVLFESVERDQVRRGVLTAD	11.3	10.0	21.3	70.0	15.0
